The record followed here is article PMC10786891, “Massively parallel profiling of RNA-targeting CRISPR-Cas13d”.

T1: EsCas13d, nuclease-dead (Eubacterium siraeum, UniProt B0MS50, R295A;H300A;R849A;H854A)
T1 sequence: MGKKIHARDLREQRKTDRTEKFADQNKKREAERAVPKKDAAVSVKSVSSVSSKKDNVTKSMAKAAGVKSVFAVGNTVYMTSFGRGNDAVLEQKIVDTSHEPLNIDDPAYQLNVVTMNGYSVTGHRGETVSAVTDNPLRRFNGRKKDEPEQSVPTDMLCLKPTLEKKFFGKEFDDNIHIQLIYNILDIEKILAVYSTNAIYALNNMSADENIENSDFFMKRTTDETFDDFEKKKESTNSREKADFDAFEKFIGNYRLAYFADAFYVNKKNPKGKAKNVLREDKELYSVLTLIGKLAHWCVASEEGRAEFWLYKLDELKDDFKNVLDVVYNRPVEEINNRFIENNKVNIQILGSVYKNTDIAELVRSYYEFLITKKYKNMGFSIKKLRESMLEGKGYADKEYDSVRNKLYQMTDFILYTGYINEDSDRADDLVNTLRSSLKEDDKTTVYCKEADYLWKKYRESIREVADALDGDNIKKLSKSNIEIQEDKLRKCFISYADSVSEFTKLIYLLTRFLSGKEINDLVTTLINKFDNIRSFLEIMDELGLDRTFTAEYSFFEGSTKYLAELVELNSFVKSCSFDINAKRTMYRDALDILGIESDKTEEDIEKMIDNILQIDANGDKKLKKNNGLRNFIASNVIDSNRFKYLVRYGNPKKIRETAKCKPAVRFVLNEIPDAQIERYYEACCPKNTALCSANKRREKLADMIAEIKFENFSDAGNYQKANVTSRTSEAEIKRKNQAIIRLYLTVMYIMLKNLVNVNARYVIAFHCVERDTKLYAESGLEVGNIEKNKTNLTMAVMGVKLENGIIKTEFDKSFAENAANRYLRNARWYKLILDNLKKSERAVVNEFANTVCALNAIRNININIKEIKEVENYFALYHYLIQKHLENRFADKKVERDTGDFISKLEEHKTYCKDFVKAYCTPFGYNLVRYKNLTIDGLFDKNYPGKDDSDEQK

B1: target 1 del3,del16 (mixed)
RNA 1: CACCCGUGCAAAAAUGCAGGGGUCUAAAACUGAGCGGAUAACCUCUCUAUGG
RNA 2: GGGAAUGGAUCCACAUCUACGAAUUCGUACCAUAGGAGGUUAUCCGCCACCGAGAUCGGAAGAGCACACGU
B2: target 1 C2A,C4U (mixed)
RNA 1: CACCCGUGCAAAAAUGCAGGGGUCUAAAACUGAGCGGAUAACCUCUCUAUGG
RNA 2: GGGAAUGGAUCCACAUCUACGAAUUCGUACCAUAGAGAGGUUAUCCGUUAACCGAGAUCGGAAGAGCACACGU
B3: target 1 U3G,G15C (mixed)
RNA 1: CACCCGUGCAAAAAUGCAGGGGUCUAAAACUGAGCGGAUAACCUCUCUAUGG
RNA 2: GGGAAUGGAUCCACAUCUACGAAUUCGUACCAUAGACAGGUUAUCCGCGCACCGAGAUCGGAAGAGCACACGU
B4: target 1 insC 3' of 15,insC 3' of 14 (mixed)
RNA 1: CACCCGUGCAAAAAUGCAGGGGUCUAAAACUGAGCGGAUAACCUCUCUAUGG
RNA 2: GGGAAUGGAUCCACAUCUACGAAUUCGUACCAUAGAGCACGGUUAUCCGCUCACCGAGAUCGGAAGAGCACACGU
B5: target 1 insU 3' of 15,insG 3' of 3 (mixed)
RNA 1: CACCCGUGCAAAAAUGCAGGGGUCUAAAACUGAGCGGAUAACCUCUCUAUGG
RNA 2: GGGAAUGGAUCCACAUCUACGAAUUCGUACCAUAGAGUAGGUUAUCCGCUGCACCGAGAUCGGAAGAGCACACGU
B6: target 1 G12U,A16C (mixed)
RNA 1: CACCCGUGCAAAAAUGCAGGGGUCUAAAACUGAGCGGAUAACCUCUCUAUGG
RNA 2: GGGAAUGGAUCCACAUCUACGAAUUCGUACCAUAGCGAGUUUAUCCGCUCACCGAGAUCGGAAGAGCACACGU
B7: target 1 C7G,G17A (mixed)
RNA 1: CACCCGUGCAAAAAUGCAGGGGUCUAAAACUGAGCGGAUAACCUCUCUAUGG
RNA 2: GGGAAUGGAUCCACAUCUACGAAUUCGUACCAUAAAGAGGUUAUGCGCUCACCGAGAUCGGAAGAGCACACGU
B8: target 1 insA 3' of 22,insU 3' of 9 (mixed)
RNA 1: CACCCGUGCAAAAAUGCAGGGGUCUAAAACUGAGCGGAUAACCUCUCUAUGG
RNA 2: GGGAAUGGAUCCACAUCUACGAAUUCGUACACAUAGAGAGGUUAUUCCGCUCACCGAGAUCGGAAGAGCACACGU
B9: target 1 insU 3' of 13,insA 3' of 3 (mixed)
RNA 1: CACCCGUGCAAAAAUGCAGGGGUCUAAAACUGAGCGGAUAACCUCUCUAUGG
RNA 2: GGGAAUGGAUCCACAUCUACGAAUUCGUACCAUAGAGAGUGUUAUCCGCUACACCGAGAUCGGAAGAGCACACGU
B10: target 1 C7A,A20U (mixed)
RNA 1: CACCCGUGCAAAAAUGCAGGGGUCUAAAACUGAGCGGAUAACCUCUCUAUGG
RNA 2: GGGAAUGGAUCCACAUCUACGAAUUCGUACCUUAGAGAGGUUAUACGCUCACCGAGAUCGGAAGAGCACACGU
B11: target 1 insA 3' of 15,insC 3' of 14 (mixed)
RNA 1: CACCCGUGCAAAAAUGCAGGGGUCUAAAACUGAGCGGAUAACCUCUCUAUGG
RNA 2: GGGAAUGGAUCCACAUCUACGAAUUCGUACCAUAGAGAACGGUUAUCCGCUCACCGAGAUCGGAAGAGCACACGU
B12: target 1 U11A,G12U (mixed)
RNA 1: CACCCGUGCAAAAAUGCAGGGGUCUAAAACUGAGCGGAUAACCUCUCUAUGG
RNA 2: GGGAAUGGAUCCACAUCUACGAAUUCGUACCAUAGAGAGUAUAUCCGCUCACCGAGAUCGGAAGAGCACACGU
B13: target 1 insG 3' of 19 (mixed)
RNA 1: CACCCGUGCAAAAAUGCAGGGGUCUAAAACUGAGCGGAUAACCUCUCUAUGG
RNA 2: GGGAAUGGAUCCACAUCUACGAAUUCGUACCAUGAGAGAGGUUAUCCGCUCACCGAGAUCGGAAGAGCACACGU
B14: target 1 insA 3' of 11,insG 3' of 3 (mixed)
RNA 1: CACCCGUGCAAAAAUGCAGGGGUCUAAAACUGAGCGGAUAACCUCUCUAUGG
RNA 2: GGGAAUGGAUCCACAUCUACGAAUUCGUACCAUAGAGAGGUAUAUCCGCUGCACCGAGAUCGGAAGAGCACACGU
B15: target 1 A9G,G15A (mixed)
RNA 1: CACCCGUGCAAAAAUGCAGGGGUCUAAAACUGAGCGGAUAACCUCUCUAUGG
RNA 2: GGGAAUGGAUCCACAUCUACGAAUUCGUACCAUAGAAAGGUUGUCCGCUCACCGAGAUCGGAAGAGCACACGU
B16: target 1 insC 3' of 18,insA 3' of 17 (mixed)
RNA 1: CACCCGUGCAAAAAUGCAGGGGUCUAAAACUGAGCGGAUAACCUCUCUAUGG
RNA 2: GGGAAUGGAUCCACAUCUACGAAUUCGUACCAUACGAAGAGGUUAUCCGCUCACCGAGAUCGGAAGAGCACACGU
B17: target 1 A1C,C7G (mixed)
RNA 1: CACCCGUGCAAAAAUGCAGGGGUCUAAAACUGAGCGGAUAACCUCUCUAUGG
RNA 2: GGGAAUGGAUCCACAUCUACGAAUUCGUACCAUAGAGAGGUUAUGCGCUCCCCGAGAUCGGAAGAGCACACGU
B18: target 1 insU 3' of 22,insA 3' of 6 (mixed)
RNA 1: CACCCGUGCAAAAAUGCAGGGGUCUAAAACUGAGCGGAUAACCUCUCUAUGG
RNA 2: GGGAAUGGAUCCACAUCUACGAAUUCGUACUCAUAGAGAGGUUAUCCAGCUCACCGAGAUCGGAAGAGCACACGU
B19: target 1 insA 3' of 22,insA 3' of 17 (mixed)
RNA 1: CACCCGUGCAAAAAUGCAGGGGUCUAAAACUGAGCGGAUAACCUCUCUAUGG
RNA 2: GGGAAUGGAUCCACAUCUACGAAUUCGUACACAUAGAAGAGGUUAUCCGCUCACCGAGAUCGGAAGAGCACACGU
B20: target 1 insA 3' of 21,insU 3' of 7 (mixed)
RNA 1: CACCCGUGCAAAAAUGCAGGGGUCUAAAACUGAGCGGAUAACCUCUCUAUGG
RNA 2: GGGAAUGGAUCCACAUCUACGAAUUCGUACCAAUAGAGAGGUUAUCUCGCUCACCGAGAUCGGAAGAGCACACGU
B21: target 1 U3A,G12C (mixed)
RNA 1: CACCCGUGCAAAAAUGCAGGGGUCUAAAACUGAGCGGAUAACCUCUCUAUGG
RNA 2: GGGAAUGGAUCCACAUCUACGAAUUCGUACCAUAGAGAGCUUAUCCGCACACCGAGAUCGGAAGAGCACACGU
B22: target 1 insU 3' of 5,insG 3' of 3 (mixed)
RNA 1: CACCCGUGCAAAAAUGCAGGGGUCUAAAACUGAGCGGAUAACCUCUCUAUGG
RNA 2: GGGAAUGGAUCCACAUCUACGAAUUCGUACCAUAGAGAGGUUAUCCGUCUGCACCGAGAUCGGAAGAGCACACGU
B23: target 1 insA 3' of 19,insA 3' of 13 (mixed)
RNA 1: CACCCGUGCAAAAAUGCAGGGGUCUAAAACUGAGCGGAUAACCUCUCUAUGG
RNA 2: GGGAAUGGAUCCACAUCUACGAAUUCGUACCAUAAGAGAGAGUUAUCCGCUCACCGAGAUCGGAAGAGCACACGU
B24: target 1 A1G,C7G (mixed)
RNA 1: CACCCGUGCAAAAAUGCAGGGGUCUAAAACUGAGCGGAUAACCUCUCUAUGG
RNA 2: GGGAAUGGAUCCACAUCUACGAAUUCGUACCAUAGAGAGGUUAUGCGCUCGCCGAGAUCGGAAGAGCACACGU
B25: target 1 C21A,C22A (mixed)
RNA 1: CACCCGUGCAAAAAUGCAGGGGUCUAAAACUGAGCGGAUAACCUCUCUAUGG
RNA 2: GGGAAUGGAUCCACAUCUACGAAUUCGUAAAAUAGAGAGGUUAUCCGCUCACCGAGAUCGGAAGAGCACACGU
B26: target 1 insU 3' of 6 (mixed)
RNA 1: CACCCGUGCAAAAAUGCAGGGGUCUAAAACUGAGCGGAUAACCUCUCUAUGG
RNA 2: GGGAAUGGAUCCACAUCUACGAAUUCGUACCAUAGAGAGGUUAUCCUGCUCACCGAGAUCGGAAGAGCACACGU
B27: target 1 C7G (mixed)
RNA 1: CACCCGUGCAAAAAUGCAGGGGUCUAAAACUGAGCGGAUAACCUCUCUAUGG
RNA 2: GGGAAUGGAUCCACAUCUACGAAUUCGUACCAUAGAGAGGUUAUGCGCUCACCGAGAUCGGAAGAGCACACGU

The target of the series is T1, EsCas13d, nuclease-dead. Briefly: crRNA (strand 1, pre-loaded); Mg2+; 40 mM Tris-HCl pH 7.5, 150 mM NaCl, 6 mM MgCl2, 1 mM DTT, 0.1% Tween-20, 0.2 mg/ml BSA; 25 C; 10 min per concentration, then washed. The note with it: tags: His6-TwinStrep-SUMO cleaved; N-terminal SNAP kept (SNAP-Surface 488); label: 3' end held by stalled T7 RNA polymerase.
The term Kd denotes the concentration at which binding is half-saturated. Read a high Kd as weaker binding. The molecule B1 returned a Kd of 85 ± 31 nM. The same measure for B2: 33.5 ± 3.5 nM; for B3: 34 ± 4 nM. The molecule B4 had a Kd of 12 ± 1 nM. In the case of B5, the Kd came out at 6.99 ± 0.32 nM. The result for B6 reads 76 ± 14 nM; that for B7, 49 ± 5 nM. In turn, B8 registered a Kd of 21.6 ± 1.5 nM.

The molecule B9 registered a Kd of 24 ± 3.1 nM. The same measure for B10: 45 ± 5 nM. As for B11, binding was put at a Kd of 14.8 ± 0.7 nM. The result for B12 reads 5.1 ± 0.35 nM; that for B13, 50 ± 4 nM; that for B14, 12.1 ± 0.6 nM. The result for B15 reads 11.6 ± 0.7 nM; that for B16, 50 ± 6 nM; that for B17, 8.8 ± 0.7 nM. The result for B18 reads 55 ± 16 nM; that for B19, 27.5 ± 2 nM; that for B20, 40.7 ± 3.1 nM. Consider B21, for which the Kd is 8.5 ± 0.4 nM. The same measure for B22: 12.9 ± 0.9 nM. B23 registered a Kd of 17.9 ± 2 nM. The molecule B24 had a Kd of 9.2 ± 0.9 nM. As for B25, binding was characterised by a dissociation constant (Kd) of 36 ± 5 nM. The same measure for B26: 12.8 ± 0.7 nM; for B27: 8.8 ± 0.5 nM.
